Here are results for one substance from patent US20210347867A1.

The target in one experiment is amyloid peptide AβpE3-42 (UniProt P05067). Description: ELISA, plate coated with AβpE3-42, antibody titrated, signal as % Max.
In another experiment the target is amyloid peptide Aβ1-42 (UniProt P05067). Description: ELISA, plate coated with Aβ1-42 (target by legend paragraph 23), antibody titrated, signal as % Max.
Chain of amyloid peptide Aβ1-42 (P05067 672-713 limits assumed): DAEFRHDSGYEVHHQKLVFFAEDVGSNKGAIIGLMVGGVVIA

Chain of amyloid peptide AβpE3-42 (P05067 674-713 limits assumed): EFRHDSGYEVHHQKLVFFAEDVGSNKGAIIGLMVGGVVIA

On to Solineuzumab (antibody), for which the EC50 was 0.15 µg/mL with amyloid peptide AβpE3-42 and 0.22 µg/mL in the experiment with amyloid peptide Aβ1-42.
